Tests used:
Assay in all cases: FACS
[1] = biological target: SARS-CoV-2 RBD (Wuhan-Hu-1, Asn331–Thr531), yeast-displayed (SARS-CoV-2 (Wuhan-Hu-1), UniProt P0DTC2 331-531)
WIV1 = biological target: WIV1
[2] = biological target: BtKY72 RBD, yeast-displayed (bat sarbecovirus BtKY72)

Row | Binder | Kd [1] | Kd (WIV1) | Kd [2]
1 | Mouse (Mus musculus) ACE2 (residues 18–740) with His tag and human IgG1 Fc (Fc fusion) QSLTEENAKTFLNNFNQEAEDLSYQSSLASWNYNTNITEENAQKMSEAAAKWSAFYEEQSKTAQSFSLQEIQTPIIKRQLQALQQSGSSALSADKNKQLNTILNTMSTIYSTGKVCNPKNPQECLLLEPGLDEIMATSTDYNSRLWAWEGWRAEVGKQLRPLYEEYVVLKNEMARANNYNDYGDYWRGDYEAEGADGYNYNRNQLIEDVERTFAEIKPLYEHLHAYVRRKLMDTYPSYISPTGCLPAHLLGDMWGRFWTNLYPLTVPFAQKPNIDVTDAMMNQGWDAERIFQEAEKFFVSVGLPHMTQGFWANSMLTEPADGRKVVCHPTAWDLGHGDFRIKMCTKVTMDNFLTAHHEMGHIQYDMAYARQPFLLRNGANEGFHEAVGEIMSLSAATPKHLKSIGLLPSDFQEDSETEINFLLKQALTIVGTLPFTYMLEKWRWMVFRGEIPKEQWMKKWWEMKREIVGVVEPLPHDETYCDPASLFHVSNDYSFIRYYTRTIYQFQFQEALCQAAKYNGSLHKCDISNSTEAGQKLLKMLSLGNSEPWTKALENVVGARNMDVKPLLNYFQPLFDWLKEQNRNSFVGWNTEWSPYADQSIKVRISLKSALGANAYEWTNNEMFLFRSSVAYAMRKYFSIIKNQTVPFLEEDVRVSDLKPRVSFYFFVTSPQNVSDVIPRSEVEDAIRMSRGRINDVFGLNDNSLEFLGIHPTLEPPYQPPVT | > 10 µM | ~3.98 µM | 
2 | R. affinis 787 ACE2 residues 19–615 with C-terminal human IgG1 Fc (Genscript) (Fc fusion) STTEDRAKIFLDNFNREAEELSYQSSLASWEYNTNISDENVQKMDEAGAKWSAFYEEQSKLAKNYPLEEIQTVPVKLQLQILQQSGSPVLSEDKSKRLNSILNAMSTIYSTGKVCKPNNPQECFLLEPGLDNIMGTSKDYNERLWAWEGWRAEVGKQLRPLYEEYVVLKNEMARGYHYEDYGDYWRRDYETEESSGSGYSRDQLMKDVDRIFTEIKPLYEHLHAYVRTKLMDTYPFHISPTGCLPAHLLGDMWGRFWTNLYPLTVPFGQKPNIDVTDAMVNQGWDANRIFKEAEKFFVSVGLPNMTEGFWNNSMLTEPGDGRKVVCHPTAWDLGKGDFRIKMCTKVTMEDFLTAHHEMGHIQYDMAYATQPYLLRNGANEGFHEAVGEVMSLSVATPKHLKTMGLLSPDFLEDNETEINFLLKQALNIVGTLPFTYMLEKWRWMVFRGEIPKEEWMKKWWEMKRDLVGVVEPVPHDETYCDPASLFHVANDYSFIRYYTRTIFEFQFHEALCRIAQHDGPLHKCDISNSTDAGKKLHQMLSVGKSQPWTVTLKDIVDSRNMDVGPLLRYFEPLYTWLQEQNRKSYVGWNTDWSPYSD |  |  | 0.1 µM
